Results published in patent US20090324606A1 (published 2009).

Columns and labels:
Hall (A1) toxin [1] = target: T1, Hall (A1) toxin (UniProt P0DPI0 2-1296)
Honey (A2) toxin [2] = target: T2, Honey (A2) toxin (UniProt Q45894 2-1296)
Hall (A1) toxin [3] = target: T1, Hall (A1) toxin; remark: listed apart in the source
Honey (A2) toxin [4] = target: T2, Honey (A2) toxin; remark: listed apart in the source

T2 sequence (Q45894 2-1296): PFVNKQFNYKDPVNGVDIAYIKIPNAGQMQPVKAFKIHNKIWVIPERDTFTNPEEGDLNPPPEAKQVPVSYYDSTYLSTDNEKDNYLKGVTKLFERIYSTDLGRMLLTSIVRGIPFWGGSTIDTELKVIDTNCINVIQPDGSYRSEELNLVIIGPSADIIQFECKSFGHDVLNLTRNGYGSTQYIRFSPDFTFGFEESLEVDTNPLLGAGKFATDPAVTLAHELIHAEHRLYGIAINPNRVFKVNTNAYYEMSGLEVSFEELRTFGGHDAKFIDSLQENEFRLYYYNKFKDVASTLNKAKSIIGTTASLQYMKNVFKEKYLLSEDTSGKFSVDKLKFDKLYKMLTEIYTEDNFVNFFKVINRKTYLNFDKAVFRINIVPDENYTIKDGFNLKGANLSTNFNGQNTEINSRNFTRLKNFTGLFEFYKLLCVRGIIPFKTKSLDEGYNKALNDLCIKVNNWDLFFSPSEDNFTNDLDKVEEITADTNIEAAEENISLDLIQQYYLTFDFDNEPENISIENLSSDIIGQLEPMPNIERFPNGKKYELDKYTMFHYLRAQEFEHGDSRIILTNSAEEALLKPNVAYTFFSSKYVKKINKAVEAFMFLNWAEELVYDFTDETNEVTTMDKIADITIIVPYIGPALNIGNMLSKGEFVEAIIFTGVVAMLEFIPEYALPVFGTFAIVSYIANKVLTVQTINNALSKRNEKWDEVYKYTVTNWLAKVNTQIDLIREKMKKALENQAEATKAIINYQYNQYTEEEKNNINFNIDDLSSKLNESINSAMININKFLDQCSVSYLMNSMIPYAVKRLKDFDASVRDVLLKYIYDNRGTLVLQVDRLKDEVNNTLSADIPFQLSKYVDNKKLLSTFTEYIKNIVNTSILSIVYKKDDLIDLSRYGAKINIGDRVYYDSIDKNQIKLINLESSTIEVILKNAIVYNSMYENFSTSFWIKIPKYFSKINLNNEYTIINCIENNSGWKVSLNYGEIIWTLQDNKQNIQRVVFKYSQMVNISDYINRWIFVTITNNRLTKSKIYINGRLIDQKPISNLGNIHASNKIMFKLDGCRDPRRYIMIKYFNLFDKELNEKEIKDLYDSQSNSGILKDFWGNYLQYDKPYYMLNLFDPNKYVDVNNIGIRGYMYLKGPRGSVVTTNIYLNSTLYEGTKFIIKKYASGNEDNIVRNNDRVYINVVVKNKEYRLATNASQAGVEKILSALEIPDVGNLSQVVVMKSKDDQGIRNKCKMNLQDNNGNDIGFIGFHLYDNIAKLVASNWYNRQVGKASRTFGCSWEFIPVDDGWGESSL

Binder | Kd (Hall (A1) toxin [1]) [nM] | Kd (Honey (A2) toxin [2]) [nM] | fold tighter binding than wild type 3D12 (Hall (A1) toxin [3]) [fold] | fold tighter binding than wild type 3D12 (Honey (A2) toxin [4]) [fold]
3D12 (wild type, as tested in Table 12) (antibody, V domains shown) VH: QVQLVQSGGGVVHPGRSLKLSCAGSGFTFSDYDMHWVRQAPGKGLEWVAVMWFDGTEKYSAESVKGRFTISRDNSKNTLFLQMNSLRADDTAVYYCAREPDWLLWGDRGALDVWGQGTTVTVSS VL: DIVMTQSPSTLSASVGDRVTITCRASQSISSWLAWYQQKPGKAPKLLMYEASSLESGVPSRFSGSGSGTEFTLTISSLQPDDFAAYYCQHYNTYPYTFGQGTKLEIKR | 0.94 | 2.2 | – | –
3D12.3-1 (RAZ1) (antibody, V domains shown) VH: QVQLVQSGGGVVHPGRSLKLSCAGSGFTFSDYDMHWVRQAPGKGLEWVAVMWFDGTEKYSAESVKGRFTISRDNSKNTLFLQMNSLRADDTAVYYCAREPDWLLWGDRGALDVWGQGTTVTVSS VL: DIVMTQSPSTLSASVGDRVTITCWASQSISSRLAWYQQKPGKAPKLLMYEATSLGSGVPSRFSGSGSGTEFTLTISSLQPDDFAAYYCQHYDTYPYTFGQGTKLEIKR | 0.017 | 0.07 | > 10 | > 10
3D12.3-10 (antibody, V domains shown) VH: QVQLVQSGGGVVHPGRSLKLSCAGSGFTFSDYDMHWVRQAPGKGFEWVAVMWFDGTEKYSAESVKGRFTISRDNSKNTLFLQMNSLRADDTAVYYCAREPDRLLWGDRGALDVWGQGTTVTVSS VL: DIVMTQSPSTLSASVGDRVTITCRASQSISSWLAWYQQKPGKAPKLLMYEASSLGRGVPSRFSGSGSGTEFTLTISSLQPDDFAAYYCQHYSTYPYTFGQGTKLEIKR | 0.028 | 0.081 | > 10 | > 10
3D12.3-8 (antibody, V domains shown) VH: QVQLVQSGGGVVHPGRSLKLSCAGSGFTFSDYDMHWVRQAPGKGLEWVAVIWFDGTEKYSAESVKGRFTISRDNSKNTLFLQMNSLRADDTAVYYCAREPDWLLWGDRGALDVWGQGTTVTVSS VL: DIVMTQSPSTLSASVGDRVTITCRASQSISSWLAWYQQKPGKAPKLLMYGASSLGSGVPSRFSGSGSGTEFTLTISSLHPDDFAAYYCQHYNTYPYTFGQGTKLEIKR | 0.021 | 0.067 | > 10 | > 10
AR2 (affinity improved HuC25) (antibody, V domains shown) VH: QVQLQESGGGLVQPGGSLRLSCAASGFTFSDHYMYWVRQAPGKGLEWVATISDGGSYTYYPDSVKGRFTTSRDNSKNTLYLQMNSLRAEDTAIYYCSRYRYDDAMDYWGQGTLVTVSS VL: EIVLTQSPATLSLSPGERATISCRASESVDSYGHSFMQWYQQKPGQAPRLLIYRASNLEPGIPARFSGSGSGTDFTLTISSLEPEDFAVYYCQQGNEVPFTFGQGTKVEIKR | 0.047 | – | – | –
AR1 (affinity improved HuC25) (antibody, V domains shown) VH: QVQLQESGGGLVQPGGSLRLSCAASGFTFSDYYMYWVRQAPGKGLEWVATISDGGSYTYYPDSVKGRFTISRDNSKNTLYLQMNSLRAEDTAIYYCSRYRYDDAMDYWGQGTLVTVSS VL: EIVLTQSPATLSLSPGERATISCRASESVDSYGHSFMQWYQQKPGQAPRLLIYRASNLEPGIPARFSGSGSGTDFTLTISSLEPEDFAVYYCQQGNEVPFTFGQGTKVEIKR | 0.2 | 100 | – | –
WR1(T) (HuC25 derivative) (antibody, V domains shown) VH: QVQLQESGGGLVQPGGSLRLSCAASGFTSSDHYMYWVRQAPGKGLEWVATISDGGSYTYYPDSVKGRFTTSRDNSKNTLYLQMNSLRAEDTAIYYCSRYRYDDAMDYWGQGTLVTVSS VL: EIVLTQSPATLSLSPGERATISCRASESVDSYGHSFMQWYQQKPGQAPRLLIYRASNLEPGIPARFSGSGSGTDFTLTISSLEPEDFAVYYCQQGNEVPFTFGQGTKVEIKR | 0.31 | 3.7 | – | –
WR1(V) (HuC25 derivative) (antibody, V domains shown) VH: QVQLQESGGGLVQPGGSLRLSCAASGFTSSDHYMYWVRQAPGKGLEWVATISDGGSYTYYPDSVKGRFTVSRDNSKNTLYLQMNSLRAEDTAIYYCSRYRYDDAMDYWGQGTLVTVSS VL: EIVLTQSPATLSLSPGERATISCRASESVDSYGHSFMQWYQQKPGQAPRLLIYRASNLEPGIPARFSGSGSGTDFTLTISSLEPEDFAVYYCQQGNEVPFTFGQGTKVEIKR | 0.45 | 9 | – | –
Humanized C25 (HuC25) (antibody, V domains shown) VH: QVQLQESGGGLVQPGGSLRLSCAASGFTFSDYYMYWVRQAPGKGLEWVATISDGGSYTYYPDSVKGRFTISRDNSKNTLYLQMNSLRAEDTAMYYCSRYRYDDAMDYWGQGTLVTVSS VL: EIVLTQSPATLSLSPGERATISCRASESVDSYGHSFMQWYQQKPGQAPRLLIYRASNLEPGIPARFSGSGSGTDFTLTISSLEPEDFAVYYCQQSNEDPFTFGQGTKVEIKR | 1.24 | 250 | – | –
